Patent publication EP4218932A2 (GammaDelta Therapeutics Limited, dated 2023)
Changes are numbered by the printed parent chain.

B1: 1252_P01_C08 (antibody, human IgG1, V domains shown)
VH: EVQLLESGGGLVQPGRSLRLSCAASGFTVSSNYMSWVRQAPGKGLEWVSVIYSGGSTYYADSVKGRFTISRDNSKNTLYLQMNSLRAEDTAVYYCASPIELGAFDIWGQGTLVTVSS
VL: SSYELTQPPSVSVAPGKTARITCGGNNIGSQSVHWYQQKPGQAPMLVIYYDSDRPSGIPERFSGSNSGNTATLTISRVEAGDEADYYCQVWDSSSDHVVFGGGTKLTVL
B2: 1245_P02_G04 (antibody, human IgG1, V domains shown)
VH: QVQLQQSGPGLVKPSQTLSLTCAISGDSVSSKSAAWNWIRQSPSRGLEWLGRTYYRSKWSTDYAASVKSRITINPDTSKNQLSLQLNSVTPEDTAVYYCARTWSGYVDVWGQGTLVTVSS
VL: DIQMTQSPPALSASVGDRVTITCRASQDINDWLAWYQHKPGKAPKLLIYDASSLESGVPSRFSGSGSGTEFTLTISSLQPDDFATYYCQQSYSTPQVTFGQGTRLEIK
B3: 1139_P01_E04 (antibody, human IgG1, V domains shown)
VH: QVQLQQSGPGLVKPSQTLSLTCAISGDSVSSNSAAWNWIRQSPSRGLEWLGRTYYRSKWYNDYAVSVRSRITINPDTSKNQFSLQLNSVTPEDTAVYYCARSWNDAFDIWGQGTTVTVSS
VL: DIVMTQSPSTLSASIGDRVTITCRAGQSISTWLAWYQQKPGKAPKLLIYDASSLESGVPLRFSGSGSGTDFTLTISSLQPEDFATYYCQQSYSTPLTFGGGTKVEIK
B4: 1245_P01_G06 (antibody, V domains shown)
VH: QVQLVESGGGLVKPGGSLRLSCAASGFTFSDYYMSWIRQAPGKGLEWVSYISSSGSTIYYADSVKGRFTISRDNAKNSLYLQMNSLRAEDTAVYYCARHSWNDAFDVWGQGTLVTVSS
VL: not shown
B5: 1245_P01_G09 (antibody, human IgG1, V domains shown)
VH: QVQLQQSGPGLVKPSQTLSLTCAISGDSVSSNSAAWNWIRQSPSRGLEWLGRTYYGSKWYNEYALSVKSRIIINPDTSKNQFSLQLNSVTPEDTAVYYCARDYYYSMDVWGQGTLVTVSS
VL: B3 VL with D70E, T74A, E81D, L96V, G100Q
B6: 1245_P01_E07 (antibody, human IgG1, V domains shown)
VH: B4 VH with H99V, S100D, W101Y, N102A, V107I
VL: DIQMTQSPSSLSASVGDRVTIACRAGQSIGTYLNWYQQKPGKAPKLLIYVASSLQSGVPSRFSGSGSGTEFTLTISSLQPEDFATYYCQQSYSTLLTFGRGTKVEIK

target: Vδ1 chain of the γδ TCR on Vδ1+ γδ T cells (human); assay: cell-based or functional assay

In order of falling “Killing assay (EC50 µg/ml - 2 or 3 donors)” value:
1. B2  0.1 µg/mL
2. B6  0.06 µg/mL
3. B1  0.02 µg/mL

In order of rising “T cell degranulation (EC50 µg/ml - 3 donors)” value:
1. B4  0.001 µg/mL
2. B5  0.001 µg/mL
3. B2  0.002 µg/mL
4. B3  0.005 µg/mL
